Where a SMILES comes first, the peptide text is derived from it. Bridges are numbered along the chain shown (N, C = ends). The star is where a group is joined. X1 = CC1=CC(C)(C)N(CCCS(=O)(=O)O)c2cc3c(cc21)/C(=C/C=C/C1=[N+](CCCS(=O)(=O)O)c2ccc(S(=O)(=O)[O-])cc2C1(C)CCCC(=O)*)C=C(C(C)(C)C)O3
Assay: Limited acute dose toxicity study in male rats
Type: in vivo, rat
Method: A limited acute dose toxicity study was conducted to investigate the tolerance of Compound 6 at 100 times the preclinical imaging dose (50 nmol/kg body weight). The compound was injected intravenously in male rats, and the animals were sacrificed at 1, 14, 21 and 28 days post injection (p.i.). At necropsy, the major organs were inspected for gross pathology, and the kidneys were taken into neutral buffered formalin for subsequent histomorphological evaluation. A weak blue colouration of the skin and a moderate blue colouration of the urine were observed immediately after injection, which disappeared within 1 day p.i. […] The other minor changes seen were incidental and common in young adult laboratory rats. Strong fluorescence staining of blood vessels in the kidney was observed on day 1 p.i.

CC(=O)N[C@@H](C)C(=O)NCC(=O)N[C@@H](CO)C(=O)N[C@H]1CSSC[C@@H](C(=O)N[C@@H](Cc2ccc(O)cc2)C(=O)N[C@@H](CCC(=O)O)C(=O)N[C@H](C(=O)N[C@@H](CCC(=O)O)C(=O)NCC(=O)N[C@H](C(=O)NCC(=O)NCC(=O)NCC(=O)N[C@@H](CCCCNC(=O)CCCC2(C)C(/C=C/C=C3\C=C(C(C)(C)C)Oc4cc5c(cc43)C(C)=CC(C)(C)N5CCCS(=O)(=O)O)=[N+](CCCS(=O)(=O)O)c3ccc(S(=O)(=O)[O-])cc32)C(N)=O)[C@@H](C)O)[C@@H](C)O)NC(=O)[C@H](Cc2c[nH]c3ccccc23)NC(=O)[C@@H]2CSSC[C@H](NC(=O)[C@H](Cc3ccc(O)cc3)NC1=O)C(=O)N[C@@H](CO)C(=O)NCC(=O)N1CCC[C@H]1C(=O)N1CCC[C@H]1C(=O)N[C@@H](CCCNC(=N)N)C(=O)N[C@@H](Cc1ccccc1)C(=O)N[C@@H](CCC(=O)O)C(=O)N2 (stereo partly drawn) [Compound 6] (Ac-AGSCYCSGPPRFECWCYETEGTGGGK(X1)-NH2; disulfide 4-16, 6-14)
Tolerance of single intravenous administration (100 times the anticipated clinical dose): well tolerated and without any drug substance related adverse effects | Gross appearance of the kidneys at necropsy (day 1 p.i.): diffusely green | Time until blue colouration of skin and urine disappeared (i.v., weak blue colouration of skin, moderate of urine, immediately after injection): ≤ 1 day p.i.

Reference: patent publication US8431111B2, “Peptide imaging agents” (GE Healthcare Limited, priority 2007, dated 2013)
